Biological target: HLA-A*02:01 (Homo sapiens, UniProt P04439, D140Y/D185E/D98H/E176V/E277Q/G131W/G231S/I119V/I121R/I166T/I218V/L300P/L318F/N151K/N90K/P208A/P217A/Q86G/Q94H/R138H/R169H/T345S)
Experiment: MHC binding assay (UV-ligand exchange, beta2m ELISA)
Settings: binding of HLA-class I restricted peptides to HLA-A*02:01, β2m ELISA
Description: Candidate peptides for T cell based therapies according to the present invention were further tested for their MHC binding capacity (affinity). The individual peptide-MHC complexes were produced by UV-ligand exchange, where a UV-sensitive peptide is cleaved upon UV-irradiation, and exchanged with the peptide of interest as analyzed. Only peptide candidates that can effectively bind and stabilize the peptide-receptive MHC molecules prevent dissociation of the MHC complexes. To determine the yield of the exchange reaction, an ELISA was performed based on the detection of the light chain (β2m) of stabilized MHC complexes. The assay was performed as generally described in Rodenko et al. (Rodenko et al., 2006).
96 well MAXISorp plates (NUNC) were coated over night with 2 ug/ml streptavidin in PBS at room temperature, washed 4× and blocked for 1 h at 37° C. in 2% BSA containing blocking buffer. Refolded HLA-A*02:01/MLA-001 monomers served as standards, covering the range of 15-500 ng/ml. Peptide-MHC monomers of the UV-exchange reaction were diluted 100 fold in blocking buffer. Samples were incubated for 1 h at 37° C., washed four times, incubated with 2 ug/ml HRP conjugated anti-β2m for 1 h at 37° C., washed again and detected with TMB solution that is stopped with […]. Absorption was measured at 450 nm. Candidate peptides that show a high exchange yield (preferably higher than 50%, most preferred higher than 75%) are generally preferred for a generation and production of antibodies or fragments thereof, and/or T cell receptors or fragments thereof, as they show sufficient avidity to the MHC molecules and prevent dissociation of the MHC complexes.

Peptide Exchange (MHC class I binding score, peptide exchange yield) | Substance
“++” (≥20% = ++) | 3 (VIAELPPKV; listed as Homo sapiens) [compound 3]
“+++” (≥50 = +++) | 4 (VIAELPPKVSV; listed as Homo sapiens) [compound 4]
“+++” (≥50 = +++) | 8 (ALAASALPALV; listed as Homo sapiens) [compound 8]
“+++” (≥50 = +++) | 10 (FVYGESVEL; listed as Homo sapiens) [compound 10]
“+++” (≥50 = +++) | 11 (ALFTFSPLTV; listed as Homo sapiens) [compound 11]
“+++” (≥50 = +++) | 13 (VVDGMPPGV; listed as Homo sapiens) [compound 13]
“++++” (≥75% = ++++) | 16 (ALPGGAAVAAV; listed as Homo sapiens) [compound 16]
“+++” (≥50 = +++) | 18 (LLGEFSIKM; listed as Homo sapiens) [compound 18]
“+++” (≥50 = +++) | 19 (QVMEKLAAV; listed as Homo sapiens) [compound 19]
“+++” (≥50 = +++) | 20 (ALVDPGPDFVV; listed as Homo sapiens) [compound 20]
“+++” (≥50 = +++) | 21 (ALWAGLLTL; listed as Homo sapiens) [compound 21]
“+++” (≥50 = +++) | 22 (ALWDPVIEL; listed as Homo sapiens) [compound 22]
“+++” (≥50 = +++) | 24 (AMAGDVVYA; listed as Homo sapiens) [compound 24]
“++” (≥20% = ++) | 25 (ATYSGLESQSV; listed as Homo sapiens) [compound 25]
“++” (≥20% = ++) | 28 (AVLHLLLSV; listed as Homo sapiens) [compound 28]
“+++” (≥50 = +++) | 30 (ELLEGSEIYL; listed as Homo sapiens) [compound 30]
“+++” (≥50 = +++) | 35 (FILPSSLYL; listed as Homo sapiens) [compound 35]
“++++” (≥75% = ++++) | 36 (FILTHVDQL; listed as Homo sapiens) [compound 36]

Peptide Exchange (MHC class I binding score, peptide exchange yield) | Substance
“++++” (≥75% = ++++) | 43 (FLLGPEALSFA; listed as Homo sapiens) [compound 43]
“+++” (≥50 = +++) | 44 (FLLSINDFL; listed as Homo sapiens) [compound 44]
“+++” (≥50 = +++) | 45 (FLPELPADLEA; listed as Homo sapiens) [compound 45]
“+++” (≥50 = +++) | 46 (YIIDSAQAV; listed as Homo sapiens) [compound 46]
“++” (≥20% = ++) | 47 (FLSDQPEPYL; listed as Homo sapiens) [compound 47]
“++++” (≥75% = ++++) | 52 (FLVETGFLHV; listed as Homo sapiens) [compound 52]
“+++” (≥50 = +++) | 53 (FLWQHVELVL; listed as Homo sapiens) [compound 53]
“+++” (≥50 = +++) | 55 (FMEPTLLML; listed as Homo sapiens) [compound 55]
“+++” (≥50 = +++) | 59 (FVFGDENGTVSL; listed as Homo sapiens) [compound 59]
“+++” (≥50 = +++) | 61 (FVYFIVREV; listed as Homo sapiens) [compound 61]
“+++” (≥50 = +++) | 62 (GIIDGSPRL; listed as Homo sapiens) [compound 62]
“+++” (≥50 = +++) | 63 (SLAHVAGCEL; listed as Homo sapiens) [compound 63]
“++” (≥20% = ++) | 65 (GLDDMKANL; listed as Homo sapiens) [compound 65]
“+++” (≥50 = +++) | 66 (SLAGGLDDMKA; listed as Homo sapiens) [compound 66]
“+” (≥10% = +) | 68 (GLDQQFAGLDL; listed as Homo sapiens) [compound 68]
“+++” (≥50 = +++) | 72 (GLLDAGKMYV; listed as Homo sapiens) [compound 72]
“+++” (≥50 = +++) | 73 (GLLEVISALQL; listed as Homo sapiens) [compound 73]
“++” (≥20% = ++) | 74 (GLLRASFLL; listed as Homo sapiens) [compound 74]

More lines, now with the values behind:

Substance | Peptide Exchange (MHC class I binding score, peptide exchange yield)
6 (ALDTLEDDMTI; listed as Homo sapiens) [compound 6] | “+++” (≥50 = +++)
7 (ALLERTGYTL; listed as Homo sapiens) [compound 7] | “+++” (≥50 = +++)
9 (ALCDTLITV; listed as Homo sapiens) [compound 9] | “+++” (≥50 = +++)
12 (ALGEDEITL; listed as Homo sapiens) [compound 12] | “+++” (≥50 = +++)
14 (ALLRLLPGL; listed as Homo sapiens) [compound 14] | “+++” (≥50 = +++)
15 (ALPEVSVEA; listed as Homo sapiens) [compound 15] | “+++” (≥50 = +++)
23 (ALYLTEVFL; listed as Homo sapiens) [compound 23] | “++++” (≥75% = ++++)
27 (AVLGLVWLL; listed as Homo sapiens) [compound 27] | “+++” (≥50 = +++)
29 (AVLQAVTAV; listed as Homo sapiens) [compound 29] | “+++” (≥50 = +++)
31 (ELMHGVAGV; listed as Homo sapiens) [compound 31] | “+++” (≥50 = +++)
34 (YLPYIFPNI; listed as Homo sapiens) [compound 34] | “+++” (≥50 = +++)
37 (FIMEGGAMVL; listed as Homo sapiens) [compound 37] | “++++” (≥75% = ++++)
38 (FIMEGGAMV; listed as Homo sapiens) [compound 38] | “+++” (≥50 = +++)
39 (FLDALLTDV; listed as Homo sapiens) [compound 39] | “+++” (≥50 = +++)
40 (FLDEDDMSL; listed as Homo sapiens) [compound 40] | “++” (≥20% = ++)
41 (FLDPSLDPLL; listed as Homo sapiens) [compound 41] | “+++” (≥50 = +++)
42 (FLEEGGVVTV; listed as Homo sapiens) [compound 42] | “+++” (≥50 = +++)
48 (FLSPQQPPLL; listed as Homo sapiens) [compound 48] | “+++” (≥50 = +++)
50 (FLFEPVVKAFL; listed as Homo sapiens) [compound 50] | “+++” (≥50 = +++)
51 (FLVEAPHDWDL; listed as Homo sapiens) [compound 51] | “++++” (≥75% = ++++)
58 (YIQQGIFSV; listed as Homo sapiens) [compound 58] | “+++” (≥50 = +++)
60 (FVLDHEDGLNL; listed as Homo sapiens) [compound 60] | “+++” (≥50 = +++)
64 (KLLESVASA; listed as Homo sapiens) [compound 64] | “+++” (≥50 = +++)
67 (GLDDVTVEV; listed as Homo sapiens) [compound 67] | “++” (≥20% = ++)
70 (FVPDTPVGV; listed as Homo sapiens) [compound 70] | “+++” (≥50 = +++)
71 (GLKHDIARV; listed as Homo sapiens) [compound 71] | “+++” (≥50 = +++)
